For the assay, the target named is T1, FokI catalytic domain protein including a C-terminal 6xHis tag and GSGS linker (Flavobacterium okeanokoites, UniProt P14870 426-579).
T1 construct: also called Fok-1; Fok1
T1 sequence: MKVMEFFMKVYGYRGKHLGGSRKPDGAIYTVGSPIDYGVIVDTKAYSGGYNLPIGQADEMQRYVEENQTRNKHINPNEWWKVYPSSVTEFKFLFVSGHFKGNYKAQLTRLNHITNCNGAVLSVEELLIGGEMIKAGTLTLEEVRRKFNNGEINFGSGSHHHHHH
Kind of assay: Biacore SPR, antibody as ligand, FokI as analyte. For orientation: In SPR one partner is held on a chip, and binding of the other changes the refractive index at the surface.

From patent publication US20200392252A1 (ALLOGENE THERAPEUTICS, published 2020) come the findings set out here.

B1: 2299.5D4.C8 (antibody, V domains shown)
VH: QIQLVQSGPELKKPGETVKISCKASGYTFTDYSIHWVKQAPGEGLKWMAWINTETGAPTFADDFKGRLALSLETSANTAYLQINNLKHEDTATYFCAKEGGFYFYAMDYWGQGTSVTVSS
VL: DIVMSQSPSSLAVSAGEKVTMSCKSSQSLLSSRTRKNYLAWYQQKPGQAPKLLISWASTRESGVPDRFTGSGSGTEFTLTISSVQAEDLAVYYCKQSYNLRTFGGGTKLEIK
In general, Kd refers to the constant that tells how readily two partners part at equilibrium. For orientation: koff means the first-order rate constant of dissociation. A lower koff goes with a long-lived complex. By kon is commonly meant a measure of how fast the partners come together. High values mean faster complex formation, low ones slower complex formation. On to B1, for which the Kd was under 7.63 nM, the koff was under 8.55e-05 s⁻¹, the kon stood at 11200 M⁻¹ s⁻¹ and the “t1/2” value was over 2.25 h.

B2: 2299.6B3.B8.B6 (antibody, V domains shown)
VH: QIQLVQSGPELKKPGETVKISCKASGYAFTDYSIHWMKQAPGEGLQWMGWINTETAKPAFGDDFKGRFAFSLETSANTAHLHINNLRTEDTATYFCAKEGGFYFYAMDYWGQGTSVTVSS
VL: DIVMSQSPSSLAVSAGEKVTMNCKSSQSLLSSRTRKNYLAWYQQKPGQSPKLLIYWASTRDSGVPDRFTGSGSGTDFTLTISSVQAEDLAVYYCKQSYNFRTFGGGTKLEIK
Regarding B2, the Kd was under 8.66 nM, the koff was under 8.55e-05 s⁻¹, the kon turned out to be 9870 M⁻¹ s⁻¹ and the “t1/2” value was over 2.25 h.

B3: 2299.2G3.C6 (antibody, V domains shown)
VH: QIQLVQSGPELKKPGETVKISCKASGYTFTDYSIHWVKQAPGEGLKWMAWINTETGAPTFADDFKGRLALSLETSANTAYLQINNLKHEDTATYFCAKEGGFYFYAMDYWGQGTSVTVSS
VL: DIVMSQSPSSRAVSAGEKVTMSCKSSQSLLSSRTRKNYLAWYQQKPGQAPKMLISWASTREFGVPDRFTGSGFGTDFTLTISSVQGEDLAVYYCKQSYNFRTFGGGTKLEIK
As to B3, the Kd is under 4.83 nM, the koff is under 8.55e-05 s⁻¹, the kon stood at 17700 M⁻¹ s⁻¹ and the “t1/2” value was over 2.25 h.

B4: 2299.6G5.C7 (antibody, V domains shown)
VH: QIQLVQSGPELKKPGETVKISCKASGYTFTDYSIHWVKQAPGKGLKWMGWINTETGAPTFADDFKGRFAFSLETSASTAFLQINNLKNEDTATYFCAKEGGFYFYAMDYWGQGTSLTVSS
VL: DIVMSQSPSSLAVSTGEKVTMSCKSSQSLLSSRTRKNYLAWYQQKPGQAPKLLISWASTRESGVPDRFTGSGSGTDFTLTISSVQAEDLAVYYCKQSFNLRTFGGGTKLEIK
For B4, the Kd was under 16.2 nM, the koff was under 8.55e-05 s⁻¹, the kon worked out at 5270 M⁻¹ s⁻¹ and the “t1/2” value is over 2.25 h.

B5: 2299.7F11.B4 (antibody, V domains shown)
VH: QIQLVQSGPELKKPGETVKISCKASGYTFTDYSIHWVKQAPGKGLKWMAWINTETGDPTYEDDFKGRFAFSLETSASTAYLQINNLKNEDTATYFCSKEGGFYFYAMDYWGQGTSVTVSS
VL: DIVMSQSPSSLAVSAGEKVTMSCKSSQSLLSSRTRKNYLAWYQQKPGQSPKLLIKWASTRESGVPDRFTGSGSGTDFTLTISSVQAEDLAVYYCKQSYNLRTFGGGTKLEIK
B5: the Kd was under 1.13 nM, the koff is under 8.55e-05 s⁻¹, the association rate constant (kon) amounted to 75700 M⁻¹ s⁻¹ and the “t1/2” value is over 2.25 h.
